Reference: patent US20100330089A1 (Pfizer, published 2010)
Values belong to the molecule of their own block, whether it stands above or below them.

Experiments:
Human CD20 [1] = molecular target: T1, Human CD20 (human, UniProt P11836 1-297); test: cell-based or functional assay
T1 construct: also called Bp35
T1 sequence: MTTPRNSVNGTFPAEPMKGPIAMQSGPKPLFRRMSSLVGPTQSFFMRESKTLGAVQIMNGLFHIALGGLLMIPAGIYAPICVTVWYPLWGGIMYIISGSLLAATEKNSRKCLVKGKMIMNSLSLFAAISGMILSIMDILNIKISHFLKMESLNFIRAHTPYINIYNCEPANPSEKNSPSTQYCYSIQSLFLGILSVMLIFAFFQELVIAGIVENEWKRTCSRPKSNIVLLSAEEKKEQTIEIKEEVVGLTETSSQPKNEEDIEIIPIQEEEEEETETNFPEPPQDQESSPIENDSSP

Human CD20 [2] = molecular target: T1, Human CD20; test: flow cytometry on primary human B cells, binder at 10 ug/ml (first block)
Human CD20 [3] = molecular target: T1, Human CD20; test: flow cytometry on primary human B cells, binder at 10 ug/ml (second block)
Human CD20 [4] = molecular target: T1, Human CD20; test: flow cytometry on primary human B cells, binder at 0.12 ug/ml (first block)
Human CD20 [5] = molecular target: T1, Human CD20; test: flow cytometry on primary human B cells, binder at 1.1 ug/ml (second block)
Human CD20 [6] = molecular target: T1, Human CD20; test: flow cytometry on primary human B cells, binder at 0.04 ug/ml (second block)
Human CD20 [7] = molecular target: T1, Human CD20; test: flow cytometry on primary human B cells, binder at 0.12 ug/ml (second block)
Human CD20 (human) [8] = molecular target: T2, Human CD20 (human) (UniProt P11836); test: cell-based or functional assay
T2 sequence: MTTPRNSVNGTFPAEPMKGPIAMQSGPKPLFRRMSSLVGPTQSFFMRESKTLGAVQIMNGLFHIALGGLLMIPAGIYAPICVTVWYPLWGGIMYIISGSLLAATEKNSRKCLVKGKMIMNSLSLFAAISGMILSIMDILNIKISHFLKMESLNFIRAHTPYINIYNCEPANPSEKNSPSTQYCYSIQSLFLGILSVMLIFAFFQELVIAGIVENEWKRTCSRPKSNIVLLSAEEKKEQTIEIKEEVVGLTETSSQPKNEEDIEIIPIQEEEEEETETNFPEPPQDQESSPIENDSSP

Human CD20 (human) [9] = molecular target: T2, Human CD20 (human); test: flow cytometry on primary human B cells, binder at 10 ug/ml (first block)
Human CD20 (human) [10] = molecular target: T2, Human CD20 (human); test: flow cytometry on primary human B cells, binder at 1.1 ug/ml (first block)
Human CD20 (human) [11] = molecular target: T2, Human CD20 (human); test: flow cytometry on primary human B cells, binder at 10 ug/ml (second block)
Human CD20 (human) [12] = molecular target: T2, Human CD20 (human); test: flow cytometry on primary human B cells, binder at 0.12 ug/ml (first block)
Human CD20 (human) [13] = molecular target: T2, Human CD20 (human); test: flow cytometry on primary human B cells, binder at 0.37 ug/ml (first block)
Human CD20 (human) [14] = molecular target: T2, Human CD20 (human); test: flow cytometry on primary human B cells, binder at 1.1 ug/ml (second block)
Human CD20 (human) [15] = molecular target: T2, Human CD20 (human); test: flow cytometry on primary human B cells, binder at 0.04 ug/ml (second block)
Human CD20 (human) [16] = molecular target: T2, Human CD20 (human); test: flow cytometry on primary human B cells, binder at 0.12 ug/ml (second block)
CD20 (primary B cells) = CD20 (primary B cells) (UniProt P11836); test: flow cytometry; conditions: Fc fusion
Human CD20 [17] = molecular target: T1, Human CD20; test: flow cytometry on five human B-lymphoma cell lines
Procedure: (§1) Each of these cell lines was derived from a distinct non-Hodgkin's B-cell lymphoma patient. Briefly, increasing concentrations of CD20-binders were incubated with 100,000 BCL for 30 min at 4° C. Cells were then washed twice with PBS containing 1% BSA to remove unbound antibody and then a FITC labeled goat anti-human (H+ L) secondary antibody (100 fold diluted) was added for 30 min at 4° C. The cells were again washed twice to remove unbound secondary antibody and then resuspended in 1% formaldehyde (in PBS) with 1% BSA. Fluorescence intensity of each sample was measured using a Becton Dickinson FACSORT flow cytometer. Results are expressed as the geometric mean (GeoMean) of the fluorescent intensity.

Human CD20 [18] = molecular target: T1, Human CD20; test: flow cytometry on NU-DHL1, Ramos, SU-DHL4, SU-DHL5 and WSU-DLCL2 cells; confirmed by immunofluorescence on Ramos and WSU-DLCL2
Procedure: as §1

Molecule: RITUXAN (rituximab) (antibody)
% lysis (CDC on Ramos cells), 0.12 ug/ml (Human CD20 (human) [8]): 56.5 % lysis | % lysis (CDC on Ramos cells), 0.37 ug/ml (Human CD20 (human) [8]): 60.2 % lysis | % lysis (CDC on Ramos cells), 1.1 ug/ml (Human CD20 (human) [8]): 57.1 % lysis | % lysis (CDC on Ramos cells), 10 ug/ml (Human CD20 (human) [8]): 82.5 % lysis | % lysis (CDC on Ramos cells), 1 nm (Human CD20 (human) [8]): 67.6 % lysis | % lysis (CDC on Ramos cells), 4 nm (Human CD20 (human) [8]): 65.1 % lysis | % lysis (CDC on Ramos cells), 11 nm (Human CD20 (human) [8]): 66.3 % lysis | % lysis (CDC on Ramos cells), 100 nm (Human CD20 (human) [8]): 81.9 % lysis | MFI (Human CD20 (human) [9]): 199 MFI | MFI (Human CD20 (human) [10]): 173 MFI | MFI (Human CD20 (human) [11]): 172 MFI | MFI (Human CD20 (human) [12]): 106 MFI | MFI (Human CD20 (human) [13]): 137 MFI | MFI (Human CD20 (human) [14]): 93 MFI | MFI (Human CD20 (human) [15]): 43.1 MFI | MFI (Human CD20 (human) [16]): 82.3 MFI

B2: 018011 (Fc fusion)
chain: EIVLTQSPATLSLSPGERATLSCRASQSVSYIVWYQQKPGQAPRLLIYAPSNLASGIPARFSGSGSGTDFTLTISSLEPEDFAVYYCQQWSFNPPTFGQGTKVEIKDGGGSGGGGSGGGGTGEVQLVQSGAEVKKPGESLKISCKGSGYSFTSYNMHWVRQMPGKGLEWMGAIYPGNGDTSYNQKFKGQVTISADKSISTAYLQWSSLKASDTAMYYCARSYYSNSYWYFDLWGRGTLVTVSS
notes: not shown: called human IgG1
binding result (Human CD20 [18]): binds

B3: 2Lm20-4 (Fc fusion, not shown: a dimerising Fc or GST)
chain: EIVLTQSPATLSLSPGERATLSCRASSSVSYIVWYQQKPGQAPRLLIYAPSNLASGIPARFSGSGSGTDFTLTISSLEPEDFAVYYCQQWSFNPPTFGQGTKVEIKDGGGSGGGGSGGGGSSQVQLVQSGAEVKKPGASVKVSCKASGYTFTSYNMHWVRQAPGQGLEWMGAIYPGNGDTSYNQKFKGRVTMTRDTSTSTVYMELSSLRSEDTAVYYCARSYYSNSYWYFDLWGRGTLVTVSS
notes: Humanized SMIP as named without a hinge suffix
binding result (Human CD20 [17]): binds

The next lines start with the values.

% lysis (CDC on Ramos cells), 0.12 ug/ml (Human CD20 [1]): 16.3 % lysis | % lysis (CDC on Ramos cells), 0.37 ug/ml (Human CD20 [1]): 38.8 % lysis | % lysis (CDC on Ramos cells), 1.1 ug/ml (Human CD20 [1]): 56.1 % lysis | % lysis (CDC on Ramos cells), 10 ug/ml (Human CD20 [1]): 67.7 % lysis | % lysis (CDC on Ramos cells), 1 nm (Human CD20 [1]): 19.8 % lysis | % lysis (CDC on Ramos cells), 4 nm (Human CD20 [1]): 26.2 % lysis | % lysis (CDC on Ramos cells), 11 nm (Human CD20 [1]): 49.7 % lysis | % lysis (CDC on Ramos cells), 100 nm (Human CD20 [1]): 86.1 % lysis | MFI (Human CD20 [2]): 149 MFI | MFI (Human CD20 [3]): 124 MFI | MFI (Human CD20 [4]): 42.8 MFI | MFI (Human CD20 [5]): 53.4 MFI | MFI (Human CD20 [6]): 19.9 MFI | MFI (Human CD20 [7]): 31.4 MFI
Molecule: TRU-015 (Fc fusion)

EC50 (CD20 (primary B cells)): 0.279 µg/mL
Molecule: TRU-015

binding result (Human CD20 [17]): binds
B1: 018008 (Fc fusion, not shown: a dimerising Fc or GST)
chain: EIVLTQSPATLSLSPGERATLSCRASQSVSYMHWYQQKPGQAPRLLIYAPSNLASGIPARFSGSGSGTDFTLTISSLEPEDFAVYYCQQWSFNPPTFGQGTKVEIKDGGGSGGGGSGGGGTGEVQLVQSGAEVKKPGESLKISCKGSGYSFTSYNMHWVRQMPGKGLEWMGAIYPGNGDTSYNQKFKGQVTISADKSISTAYLQWSSLKASDTAMYYCARVVYYSNSYWYFDLWGRGTLVTVSS
notes: as for B3
